Substrate in the data set: NC(=O)Nc1cc(-c2cccc(F)c2)sc1C(=O)N[C@H]1CCCNC1
Particulars: Homo sapiens; Insect cell; time 20.0 min.

B1: Serine/threonine-protein kinase Chk1 (Homo sapiens), O14757 (protein)
chain: MAVPFVEDWDLVQTLGEGAYGEVQLAVNRVTEEAVAVKIVDMKRAVDCPENIKKEICINKMLNHENVVKFYGHRREGNIQYLFLEYCSGGELFDRIEPDIGMPEPDAQRFFHQLMAGVVYLHGIGITHRDIKPENLLLDERDNLKISDFGLATVFRYNNRERLLNKMCGTLPYVAPELLKRREFHAEPVDVWSCGIVLTAMLAGELPWDQPSDSCQEYSDWKEKKTYLNPWKKIDSAPLALLHKILVENPSARITIPDIKKDRWYNKPLKKGAKRPRVTSGGVSESPSGFSKHIQSNLDFSPVNSASSEENVKYSSSQPEPRTGLSLWDTSPSYIDKLVQGISFSQPTCPDHMLLNSQLLGTPGSSQNPWQRLVKRMTRFFTKLDADKSYQCLKETCEKLGYQWKKSCMNQVTISTTDRRNNKLIFKVNLLEMDDKILVDFRLSKGDGLEFKRHFLKIKGKLIDIVSSQKIWLPAT
As to B1, the Km came to 80 µM.

Broadly, the Km is the concentration of substrate that gives half-maximal velocity.

The values are drawn from ChEMBL document CHEMBL5678797, “AZD7762, a novel checkpoint kinase inhibitor, drives checkpoint abrogation and potentiates DNA-targeted therapies” (Mol Cancer Ther, 2008).
